Source: patent publication US20110256153A1 (IMMUNOGEN, published 2011)
Several values for one entry are separate records, joined by “and”; a condition that tells them apart may be missing. Identical values can stand only once.

T1: human CD37 (human, UniProt P11049 1-278)
T1 sequence: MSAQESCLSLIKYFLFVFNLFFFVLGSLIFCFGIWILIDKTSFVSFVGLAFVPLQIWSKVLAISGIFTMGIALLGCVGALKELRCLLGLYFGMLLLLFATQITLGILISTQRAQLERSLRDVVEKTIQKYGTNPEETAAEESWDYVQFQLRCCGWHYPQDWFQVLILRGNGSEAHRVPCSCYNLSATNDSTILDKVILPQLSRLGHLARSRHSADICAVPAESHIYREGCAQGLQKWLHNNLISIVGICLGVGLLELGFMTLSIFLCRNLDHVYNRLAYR

T2: macaque CD37 (macaque, UniProt P11049 1-277 (human entry))
T2 construct: Expressed on 300-19 cells transfected with pSRa-CD37mac (300-19/CD37mac cells); also called macaca CD37; macaque derived CD37 antigen
T2 chain: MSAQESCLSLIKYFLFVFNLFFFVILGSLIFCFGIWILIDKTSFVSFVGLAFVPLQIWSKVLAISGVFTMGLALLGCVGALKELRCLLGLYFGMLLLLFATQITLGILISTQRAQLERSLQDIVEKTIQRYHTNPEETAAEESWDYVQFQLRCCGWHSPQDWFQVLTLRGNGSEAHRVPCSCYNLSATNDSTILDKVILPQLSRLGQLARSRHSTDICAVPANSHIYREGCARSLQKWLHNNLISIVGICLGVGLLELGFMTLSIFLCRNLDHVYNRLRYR


Tests used:
human CD37 [1] = biological target: T1, human CD37; test: cell-based or functional assay
human CD37 [2] = biological target: T1, human CD37; test: flow cytometry titration; apparent Kd; cells not named
human CD37 [3] = biological target: T1, human CD37; test: flow cytometry titration on BJAB cells; apparent Kd
Procedure: (§1) Binding specificity was tested by flow cytometry using purified antibodies. […] All murine antibodies were incubated for 3 h with either CD37-expressing 300-19 cells or the non-transfected 300-19 cells (1×10⁵ cells per sample) in 100 μL FACS buffer (RPMI-1640 medium supplemented with 2% normal goat serum). Then, the cells were pelleted, washed, and incubated for 1 h with 100 μL of FITC-conjugated goat anti-mouse IgG-antibody (Jackson Laboratory, 6 μg/mL in FACS buffer). The cells were pelleted again, washed with FACS buffer and resuspended in 200 μL of PBS containing 1% formaldehyde. Samples were acquired using a FACSCalibur flow cytometer with the HTS multiwell sampler or a FACS array flow cytometer and analyzed using CellQuest Pro (all from BD Biosciences, San Diego, US).
The humanized antibodies huCD37-38, huCD37-50, huCD37-51, huCD37-56 and chCD37-57 were assayed for their binding affinity to BJAB cells in comparison to their murine counterparts. Flow cytometry binding assays were carried out using secondary FITC-conjugated goat-anti-murine and -anti-human antibodies, analyzed as described in Example 2 and dose-response curves were generated by non-linear regression for each antibody. The value for the apparent dissociation constant (Kd) of each antibody was calculated using GraphPad Prism v4 (GraphPad software, San Diego, Calif.).

macaque CD37 = biological target: T2, macaque CD37; test: flow cytometry titration on 300-19/CD37mac cells; apparent Kd
Procedure: as §1
Flow cytometry binding assays were carried out using secondary FITC-conjugated goat-anti-human antibodies, analyzed as described in Example 2 and dose-response curves were generated by non-linear regression for each antibody. The value for the apparent dissociation constant (Kd) of each antibody was calculated using GraphPad Prism v4 (GraphPad software, San Diego, Calif.).

Binder | Kd (human CD37 [2]) | Kd (human CD37 [3]) | Kd (macaque CD37) | EC50 of in vitro cytotoxicity, WST-8 assay, Daudi cells (human CD37 [1]) | also measured
huCD37-50-SMCC-DM1 (antibody, human IgG1, kappa, V domains shown, DM1 attached through SMCC linker; attachment residues and load not stated, SMCC-DM1 conjugate of huCD37-50) VH: QVQLQESGPGLLKPSQSLSLTCTVSGYSITSGFAWHWIRQHPGNKLEWMGYILYSGSTVYSPSLKSRISITRDTSKNHFFLQLNSVTAADTATYYCARGYYGYGAWFAYWGQGTLVTVSA VL: EIVLTQSPATMSASPGERVTMTCSATSSVTYMHWYQQKPGQSPKRWIYDTSNLPYGVPARFSGSGSGTSYSLTISSMEAEDAATYYCQQWSDNPPTFGQGTKLEIKR | 700 pM | – | – | 130 pM | EC50 of in vitro cytotoxicity, WST-8 assay, Granta-519 cells (human CD37 [1]): 120 pM
huCD37-50-PEG4-mal-DM1 (antibody, human IgG1, kappa, V domains shown, DM1 attached through PEG4-mal linker; attachment residues and load not stated, PEG4-mal-DM1 conjugate of huCD37-50) VH: QVQLQESGPGLLKPSQSLSLTCTVSGYSITSGFAWHWIRQHPGNKLEWMGYILYSGSTVYSPSLKSRISITRDTSKNHFFLQLNSVTAADTATYYCARGYYGYGAWFAYWGQGTLVTVSA VL: EIVLTQSPATMSASPGERVTMTCSATSSVTYMHWYQQKPGQSPKRWIYDTSNLPYGVPARFSGSGSGTSYSLTISSMEAEDAATYYCQQWSDNPPTFGQGTKLEIKR | 1100 pM | – | – | – | –
huCD37-50 (antibody, human IgG1, kappa, V domains shown, Resurfaced (humanized) antibody) VH: QVQLQESGPGLLKPSQSLSLTCTVSGYSITSGFAWHWIRQHPGNKLEWMGYILYSGSTVYSPSLKSRISITRDTSKNHFFLQLNSVTAADTATYYCARGYYGYGAWFAYWGQGTLVTVSA VL: EIVLTQSPATMSASPGERVTMTCSATSSVTYMHWYQQKPGQSPKRWIYDTSNLPYGVPARFSGSGSGTSYSLTISSMEAEDAATYYCQQWSDNPPTFGQGTKLEIKR | 430 pM and 680 pM | 200 pM | 1800 pM | – | –
huCD37-51 (antibody, human IgG1, kappa, V domains shown, Humanized antibody) VH: EVQLVESGPEVLKPGESLSLTCTVSGYSISSGFAWHWIRQFPGKGLEWMGYIHYSGSTNYSPSLQGRISITRDSSINQFFLQLNSVTASDTATYYCARGYYGFGAWFVYWGQGTLVTVSA VL: EIVLTQSPATMSASPGERVTMTCSATSSVTYMHWYQQKPGQSPKRWIYDTSKLASGVPARFSGSGSGTSYSLTISSMEAEDAATYYCQQWSSNPPTFGQGTKLEIKR | 2000 pM | 800 pM | 14000 pM | – | –
huCD37-57-SMCC-DM1 (antibody, human IgG1, kappa, V domains shown, DM1 attached through SMCC linker; attachment residues and load not stated, SMCC-DM1 conjugate of huCD37-57) VH: QVQLQESGPGLLKPSQSLSLTCTVSGYSITSGFAWHWIRQFPGKGLEWMGYILYSGSTVYSPSLKSRISITRDTSKNQFFLQLNSVTAADTATYYCARGYYGYGAWFAYWGQGTLVTVSA VL: EIVLTQSPATMSASPGERVTMTCSATSSVTYMHWYQQKPGQSPRRWIYDTSNLASGVPARFSGSGSGTSYSLTISSMEAEDAATYYCQQWSDNPPTFGQGTKLEIKR | 340 pM | – | – | 350 pM | –

More lines, in order of falling Kd (human CD37 [2]), values ahead:

Kd (human CD37 [2]) | Kd (human CD37 [3]) | Kd (macaque CD37) | Binder | EC50 of in vitro cytotoxicity, WST-8 assay, Daudi cells (human CD37 [1]) | also measured
1600 pM | – | – | huCD37-51-SMCC-DM1 (antibody, human IgG1, kappa, V domains shown, DM1 attached through SMCC linker; attachment residues and load not stated, SMCC-DM1 conjugate of huCD37-51) VH: EVQLVESGPEVLKPGESLSLTCTVSGYSISSGFAWHWIRQFPGKGLEWMGYIHYSGSTNYSPSLQGRISITRDSSINQFFLQLNSVTASDTATYYCARGYYGFGAWFVYWGQGTLVTVSA VL: EIVLTQSPATMSASPGERVTMTCSATSSVTYMHWYQQKPGQSPKRWIYDTSKLASGVPARFSGSGSGTSYSLTISSMEAEDAATYYCQQWSSNPPTFGQGTKLEIKR | 200 pM | EC50 of in vitro cytotoxicity, WST-8 assay, Granta-519 cells (human CD37 [1]): 250 pM
350 pM | – | – | huCD37-3-PEG4-mal-DM1 (antibody, human IgG1, kappa, V domains shown, DM1 attached through PEG4-mal linker; attachment residues not stated; 3.5-4 maytansinoid molecules per antibody, heavy chain version as for huCD37-3, see its note) VH: QVQVQESGPGLVAPSQTLSITCTVSGFSLTTSGVSWVRQPPGKGLEWLGVIWGDGSTNYHPSLKSRLSIKKDHSKSQVFLKLNSLTAADTATYYCAKGGYSLAHWGQGTLVTVSS VL: DIQMTQSPSSLSVSVGERVTITCRASENIRSNLAWYQQKPGKSPKLLVNVATNLADGVPSRFSGSGSGTDYSLKINSLQPEDFGTYYCQHYWGTTWTFGQGTKLEIKR | – | EC50 of in vitro cytotoxicity, BJAB cells (human CD37 [1]): 10 pM; EC50 of in vitro cytotoxicity, Daudi cells (human CD37 [1]): 18 pM; EC50 of in vitro cytotoxicity, Granta-519 cells (human CD37 [1]): 12 pM; EC50 of in vitro cytotoxicity, Namalwa cells (human CD37 [1]): 24 pM; EC50 of in vitro cytotoxicity, Raji cells (human CD37 [1]): 45 pM; EC50 of in vitro cytotoxicity, Raji-VCR cells (human CD37 [1]): 37 pM; EC50 of in vitro cytotoxicity, Ramos cells (human CD37 [1]): 69 pM; EC50 of in vitro cytotoxicity, SU-DHL-4 cells (human CD37 [1]): 24 pM
340 pM | – | – | huCD37-56-SMCC-DM1 (antibody, human IgG1, kappa, V domains shown, DM1 attached through SMCC linker; attachment residues and load not stated, SMCC-DM1 conjugate of huCD37-56) VH: QVQLQESGPGLVKPSQSLSLTCTVSGYSITSGFAWHWIRQFPGKGLEWMGYIHYSGGTNYNPSLKSRVSITRDTSKNQFFLQLNSVTAADTATYYCARGYYGFGAWFAYWGQGTLVPVSA VL: DIVLTQSPAFMSASPGEKVTMTCSASSSVTYMHWYQQKPDQSPKRWIYDTSNLASGVPSRFSGGGSGTDYSLTISSMEAEDAATYYCQQWISDPPTFGQGTKLEIKR | 310 pM | –
300 pM | 200 pM | 5000 pM | huCD37-56 (antibody, human IgG1, kappa, V domains shown, Humanized antibody) VH: QVQLQESGPGLVKPSQSLSLTCTVSGYSITSGFAWHWIRQFPGKGLEWMGYIHYSGGTNYNPSLKSRVSITRDTSKNQFFLQLNSVTAADTATYYCARGYYGFGAWFAYWGQGTLVPVSA VL: DIVLTQSPAFMSASPGEKVTMTCSASSSVTYMHWYQQKPDQSPKRWIYDTSNLASGVPSRFSGGGSGTDYSLTISSMEAEDAATYYCQQWISDPPTFGQGTKLEIKR | – | –
300 pM | – | 2000 pM | huCD37-57 (antibody, human IgG1, kappa, V domains shown, Humanized antibody) VH: QVQLQESGPGLLKPSQSLSLTCTVSGYSITSGFAWHWIRQFPGKGLEWMGYILYSGSTVYSPSLKSRISITRDTSKNQFFLQLNSVTAADTATYYCARGYYGYGAWFAYWGQGTLVTVSA VL: EIVLTQSPATMSASPGERVTMTCSATSSVTYMHWYQQKPGQSPRRWIYDTSNLASGVPARFSGSGSGTSYSLTISSMEAEDAATYYCQQWSDNPPTFGQGTKLEIKR | – | –
